In patent US20180155451A1 (published 2018):

T1: FcγRIIb (human, UniProt P31994 43-217)
T1 construct: extracellular domain; also called FcgRIIb; 2b; not shown: His tag attached to the C terminus
T1 sequence (looked up): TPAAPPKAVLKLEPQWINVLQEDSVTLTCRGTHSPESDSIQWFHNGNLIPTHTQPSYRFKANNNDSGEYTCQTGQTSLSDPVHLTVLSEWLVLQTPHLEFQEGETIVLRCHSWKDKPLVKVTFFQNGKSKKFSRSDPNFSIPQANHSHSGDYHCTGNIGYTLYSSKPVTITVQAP

T2: FcγRIIa H (human, UniProt P12318 34-217)
T2 construct: extracellular domain; also called FcgRIIa H; FcγRIIa type H; not shown: His tag attached to the C terminus
T2 sequence (looked up): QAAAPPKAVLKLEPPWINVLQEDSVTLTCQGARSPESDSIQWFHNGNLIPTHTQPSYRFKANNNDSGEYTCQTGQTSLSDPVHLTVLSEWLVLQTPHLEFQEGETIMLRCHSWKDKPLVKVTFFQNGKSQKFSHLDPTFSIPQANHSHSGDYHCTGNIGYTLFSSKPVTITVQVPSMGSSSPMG

B1: GpH7-A5/GpH7-B3 variant L234_16H/GpL16-k0 (antibody, human IgG1, kappa)
heavy 1: not shown
heavy 2: not shown
light: DIVMTQSPLSLPVTPGEPASISCQASESLVHSNRNTYLHWYLQKPGQSPQLLIYKVSNRFSGVPDRFSGSGSGTDFTLKISRVEAEDVGVYYCSQNTHVPPTFGQGTKVEIERTVAAPSVFIFPPSDEQLKSGTASVVCLLNNFYPREAKVQWKVDNALQSGNSQESVTEQDSKDSTYSLSSTLTLSKADYEKHKVYACEVTHQGLSSPVTKSFNRGEC
notes: Heterodimerized IgG1, mutation in the GpH7-B3 chain only; also called He Ab
B2: GpH7-A5/GpH7-B3 variant L234_15Y/GpL16-k0 (antibody, human IgG1, kappa)
heavy 1: not shown
heavy 2: not shown
light: B1 light
notes: as for B1
B3: GpH7-A5/GpH7-B3 variant L235_11K/GpL16-k0 (antibody, human IgG1, kappa)
heavy 1: not shown
heavy 2: not shown
light: B1 light
notes: as for B1
B4: GpH7-A5/GpH7-B3 variant L235_18N/GpL16-k0 (antibody, human IgG1, kappa)
heavy 1: not shown
heavy 2: not shown
light: B1 light
notes: as for B1
B5: GpH7-A5/GpH7-B3 variant S239_16H/GpL16-k0 (antibody, human IgG1, kappa)
heavy 1: not shown
heavy 2: not shown
light: B1 light
notes: as for B1
B6: GpH7-A5/GpH7-B3 variant L235_03V/GpL16-k0 (antibody, human IgG1, kappa)
heavy 1: not shown
heavy 2: not shown
light: B1 light
notes: as for B1
B7: GpH7-A5/GpH7-B3 variant L235_19Q/GpL16-k0 (antibody, human IgG1, kappa)
heavy 1: not shown
heavy 2: not shown
light: B1 light
notes: as for B1
B8: GpH7-A5/GpH7-B3 variant L234_04F/GpL16-k0 (antibody, human IgG1, kappa)
heavy 1: not shown
heavy 2: not shown
light: B1 light
notes: as for B1
B9: GpH7-A5/GpH7-B3 variant L234_13S/GpL16-k0 (antibody, human IgG1, kappa)
heavy 1: not shown
heavy 2: not shown
light: B1 light
notes: as for B1
B10: GpH7-A5/GpH7-B3 variant L235_13S/GpL16-k0 (antibody, human IgG1, kappa)
heavy 1: not shown
heavy 2: not shown
light: B1 light
notes: as for B1
B11: GpH7-A5/GpH7-B3 variant L234_11K/GpL16-k0 (antibody, human IgG1, kappa)
heavy 1: not shown
heavy 2: not shown
light: B1 light
notes: as for B1
B12: GpH7-A5/GpH7-B3 variant L235_14T/GpL16-k0 (antibody, human IgG1, kappa)
heavy 1: not shown
heavy 2: not shown
light: B1 light
notes: as for B1
B13: GpH7-A5/GpH7-B3 variant L234_19Q/GpL16-k0 (antibody, human IgG1, kappa)
heavy 1: not shown
heavy 2: not shown
light: B1 light
notes: as for B1
B14: GpH7-A5/GpH7-B3 variant L234_12R/GpL16-k0 (antibody, human IgG1, kappa)
heavy 1: not shown
heavy 2: not shown
light: B1 light
notes: as for B1
B15: GpH7-A5/GpH7-B3 variant S239_11K/GpL16-k0 (antibody, human IgG1, kappa)
heavy 1: not shown
heavy 2: not shown
light: B1 light
notes: as for B1
B16: GpH7-A5/GpH7-B3 variant L234_14T/GpL16-k0 (antibody, human IgG1, kappa)
heavy 1: not shown
heavy 2: not shown
light: B1 light
notes: as for B1

What follows are binders tested against T1, FcγRIIb (assay: SPR (Biacore), antibody captured, FcγR as analyte; binding relative to GpH7-A5/GpH7-B3/GpL16-k0 = 100).
Work on B1 yielded a He/Con_2b of 59.4 control = 100.
With B2 the He/Con_2b was 96.3 control = 100.
B3 gave a He/Con_2b of 6.3 control = 100.
B4 was tested, and the He/Con_2b was 54.9 control = 100.
B5 gave a He/Con_2b of 49.4 control = 100.
With B6 the He/Con_2b was 66.4 control = 100.
Binder B7 has a He/Con_2b of 42.6 control = 100.
In the case of B8, the He/Con_2b is reported as 99.8 control = 100.
Work on B9 yielded a He/Con_2b of 59.3 control = 100.
In the case of B10, the He/Con_2b is reported as 48.2 control = 100.
B11 showed a He/Con_2b of 16.2 control = 100.
B12 was tested, and the He/Con_2b was 46.8 control = 100.
For B13, the He/Con_2b was 60.3 control = 100.
Binder B14 has a He/Con_2b of 18.9 control = 100.
B15 showed a He/Con_2b of 24.7 control = 100.
B16 gave a He/Con_2b of 62.5 control = 100.

These binders were tested against T2, FcγRIIa H in the same assay as above.
B1 showed a He/Con_2aH of 87.3 control = 100.
B2 was tested, and the He/Con_2aH was 120 control = 100.
B3 showed a He/Con_2aH of 22.7 control = 100.
Binder B4 has a He/Con_2aH of 66.1 control = 100.
B5 was tested, and the He/Con_2aH was 59.4 control = 100.
B6 showed a He/Con_2aH of 85.3 control = 100.
Binder B7 has a He/Con_2aH of 62 control = 100.
Binder B8 has a He/Con_2aH of 120 control = 100.
B9 showed a He/Con_2aH of 80.4 control = 100.
B10 gave a He/Con_2aH of 66.1 control = 100.
In the case of B11, the He/Con_2aH is reported as 40.8 control = 100.
B12 showed a He/Con_2aH of 71.5 control = 100.
B13 gave a He/Con_2aH of 79.2 control = 100.
B14 showed a He/Con_2aH of 47.7 control = 100.
In the case of B15, the He/Con_2aH is reported as 48.1 control = 100.
B16 was tested, and the He/Con_2aH was 78.1 control = 100.

The binders below were run against T2, FcγRIIa H (assay: ratio of He/Con_2aH to He/Con_2b (relative SPR binding to FcγRIIa H over FcγRIIb)).
B1 was tested, and the “He_2aH/2b (IIaH/IIb)” value was 1.47.
With B2 the “He_2aH/2b (IIaH/IIb)” value was 1.25.
In the case of B3, the “He_2aH/2b (IIaH/IIb)” value is reported as 3.61.
In the case of B4, the “He_2aH/2b (IIaH/IIb)” value is reported as 1.2.
In the case of B5, the “He_2aH/2b (IIaH/IIb)” value is reported as 1.2.
With B6 the “He_2aH/2b (IIaH/IIb)” value was 1.28.
With B7 the “He_2aH/2b (IIaH/IIb)” value was 1.45.
B8 was tested, and the “He_2aH/2b (IIaH/IIb)” value was 1.2.
For B9, the “He_2aH/2b (IIaH/IIb)” value was 1.36.
For B10, the “He_2aH/2b (IIaH/IIb)” value was 1.37.
With B11 the “He_2aH/2b (IIaH/IIb)” value was 2.52.
With B12 the “He_2aH/2b (IIaH/IIb)” value was 1.53.
B13 was tested, and the “He_2aH/2b (IIaH/IIb)” value was 1.31.
B14 was tested, and the “He_2aH/2b (IIaH/IIb)” value was 2.53.
In the case of B15, the “He_2aH/2b (IIaH/IIb)” value is reported as 1.94.
For B16, the “He_2aH/2b (IIaH/IIb)” value was 1.25.
